This note sets out measurements from paper PMC11602143, “Human selenocysteine synthase, SEPSECS, has evolved to optimize binding of a tRNA-based substrate” (Nucleic Acids Research, 2024).

The series deals with the molecule itself. The series can be described thus: SEC-MALS; protein alone, 250 μl at 1 and 4 mg/ml on Superose 6 Increase 10/300; 20 mM Tris pH 8.0, 150 mM NaCl, 5% glycerol, 0.5 mM TCEP, 10 μM PLP; oligomeric state of the holoenzyme. A general note: Size exclusion chromatography separates by hydrodynamic size, large species first.

B1: Human SEPSECS (O-phosphoseryl-tRNA^Sec selenium transferase), wild type (enzyme)
chain: MNRESFAAGERLVSPAYVRQGCEARRSHEHLIRLLLEKGKCPENGWDESTLELFLHELAIMDSNNFLGNCGVGEREGRVASALVARRHYRFIHGIGRSGDISAVQPKAAGSSLLNKITNSLVLDIIKLAGVHTVANCFVVPMATGMSLTLCFLTLRHKRPKAKYIIWPRIDQKSCFKSMITAGFEPVVIENVLEGDELRTDLKAVEAKVQELGPDCILCIHSTTSCFAPRVPDRLEELAVICANYDIPHIVNNAYGVQSSKCMHLIQQGARVGRIDAFVQSLDKNFMVPVGGAIIAGFNDSFIQEISKMYPGRASASPSLDVLITLLSLGSNGYKKLLKERKEMFSYLSNQIKKLSEAYNERLLHTPHNPISLAMTLKTLDEHRDKAVTQLGSMLFTRQVSGARVVPLGSMQTVSGYTFRGFMSHTNNYPCAYLNAASAIGMKMQDVDLFIKRLDRCLKAVRKERSKESDDNYDKTEDVDIEEMALKLDNVLLDTYQDASS
notes: Human SEPSECS, wild type, cloned into pET15b (pET15b-hWTSSS); no tag cleavage is described in the purification; PLP cofactor is present in the buffers; also called WT SEPSECS; human WT SEPSECS
Consider B1, for which the stoichiometry N (in general, the number of molecules, sites or subunits per partner or assembly) came to 4.

B2: Δ470 SEPSECS (human SEPSECS with Asp470 mutated to a stop codon) (domain or fragment, UniProt Q9HD40 1-469, looked up)
chain: MNRESFAAGERLVSPAYVRQGCEARRSHEHLIRLLLEKGKCPENGWDESTLELFLHELAIMDSNNFLGNCGVGEREGRVASALVARRHYRFIHGIGRSGDISAVQPKAAGSSLLNKITNSLVLDIIKLAGVHTVANCFVVPMATGMSLTLCFLTLRHKRPKAKYIIWPRIDQKSCFKSMITAGFEPVVIENVLEGDELRTDLKAVEAKVQELGPDCILCIHSTTSCFAPRVPDRLEELAVICANYDIPHIVNNAYGVQSSKCMHLIQQGARVGRIDAFVQSLDKNFMVPVGGAIIAGFNDSFIQEISKMYPGRASASPSLDVLITLLSLGSNGYKKLLKERKEMFSYLSNQIKKLSEAYNERLLHTPHNPISLAMTLKTLDEHRDKAVTQLGSMLFTRQVSGARVVPLGSMQTVSGYTFRGFMSHTNNYPCAYLNAASAIGMKMQDVDLFIKRLDRCLKAVRKERSKES
notes: Human SEPSECS truncated by a stop codon at the position of Asp470 (removes the α15–α16 loop and α16); made from pET15b-hWTSSS by site-directed mutagenesis; Same vector and purification as the wild type; also called Δ470 human SEPSECS; truncated mutant
In the case of B2, the “stoichiometry N” value was determined as 4.
